Data reported in patent publication US20090221680, “Aptamers that bind thrombin with high affinity” (published 2009).

Columns and labels:
[1] = biological target: T1, thrombin (alpha-thrombin) (Homo sapiens, UniProt P00734;P00734 P00734:315-363,P00734:364-622); experiment: filter; 10 nM thrombin
prothrombin = prothrombin (Homo sapiens, UniProt P00734 P00734:44-622); experiment: filter; 50 nM prothrombin; conditions: tags: Athens Research
Protocol: Dot blot binding assays were performed throughout the selections to monitor the protein binding affinity of the pools. Trace ³²P-labeled RNA was combined with a dilution series of human Thrombin (1 nM-1000 nM) and incubated at room temperature for 30 minutes in 1×DPBS (w/ Ca²⁺ and Mg²⁺) (Gibco, Catalog #14040, Invitrogen, Carlsbad, Calif.) plus 0.1 mg/ml BSA in a final volume of 30 μl. The binding reactions were analyzed by nitrocellulose filtration using a Minifold I dot-blot, 96-well vacuum filtration manifold (Schleicher & Schuell, Keene, N.H.). A three-layer filtration medium was used, consisting (from top to bottom) of Protran nitrocellulose (Schleicher & Schuell, Keene, N.H.), Hybond-P nylon (Amersham Biosciences, Piscataway, N.J.) and GB002 gel blot paper (Schleicher & Schuell, Keene, N.H.). RNA that is bound to protein is captured on the nitrocellulose filter, whereas the non-protein bound RNA is captured on the nylon filter. The gel blot paper was included simply as a supporting medium for the other filters. Following filtration, the filter layers were separated, dried and exposed on a phosphor screen (Amersham Biosciences, Piscataway, N.J.) and quantified using a Storm 860 Phosphorimager® blot imaging system (Amersham Biosciences, Piscataway, N.J.).
Based on pool binding monitored throughout the selections as described above, Round 9 Pools from both Selection #2 and #3 were also cloned using a TOPO TA Cloning kit (Invitrogen, Carlsbad, Calif.) according to manufacturer's instructions, and sequenced. Of the 136 sequences obtained from Round 9 of both selections, 130 unique sequences were selected for assaying in a single-point dot blot screen against thrombin and prothrombin to test for selective binding to thrombin. Clones were ordered from IDT (Coralville, Iowa) at 25 μmole synthesis scale. Clone transcripts were 5′ end labeled with γ̅³²P ATP and spin purified with Centrisep columns (Princeton Separations, Adelphia, N.J.) to remove excess label. Trace amounts of labeled clone were incubated with +/−10 nM Thrombin (or +/−50 nM prothrombin) and 0.1 mg/ml BSA in a total volume of 30 μl 1×DPBS (w/ Ca²⁺ and Mg²⁺) (Gibco, Catalog #14040, Invitrogen, Carlsbad, Calif.) for 30 minutes. Post incubation, the binding reaction applied the dot-blot binding assay apparatus previously described.

[2] = biological target: T1, thrombin (alpha-thrombin); experiment: filter

B1: AMX(399)_E12 (ssDNA)
DNA: TCCCGAGATCTTTATAGGGTATTGTTGGTTGGGGTGGCTGAGGATCGATC
- binding signal [1]: 20.3 % bound
- binding signal (prothrombin): 25.1 % bound

B2: AMX(399)_F1 (ssDNA)
DNA: TCCCGTGATCTCTGGGGTAACGTCTTGGTGTGGGTGGCTGAGGATCGATC
- binding signal [1]: 16.7 % bound
- binding signal (prothrombin): 19.4 % bound

B3: AMX(399)_F2 (ssDNA)
DNA: TCCCTTGATCCTGGTACATATATTTTCTGGGTGGCTGAGGATCGATC
- binding signal [1]: 7.37 % bound
- binding signal (prothrombin): 7.92 % bound

B4: AMX(399)_F3 (ssDNA)
DNA: TCCTTGTCGAGCCTTGGGGTAGTGTTGGTTTGGGTGGCTGAGGATCGATC
- binding signal [1]: 9.8 % bound
- binding signal (prothrombin): 8.7 % bound

B5: AMX(399)_F4 (ssDNA)
DNA: TCCCGTTCGGTCCGTATACTGGTGGTGGTTGGGTGGCTGAGGATCGATC
- binding signal [1]: 28.1 % bound
- binding signal (prothrombin): 25 % bound

B6: AMX(399)_F6 (ssDNA)
DNA: TCCCAAGATCGATGCTGGTAGTGTTTTCTGGGTGGCTGAGGATCGATC
- binding signal [1]: 10 % bound
- binding signal (prothrombin): 11.9 % bound

B7: AMX(399)_F7 (ssDNA)
DNA: TCCCGATCGGTCCCAAGGGTATTGTTGGTTTGGGTGGCTGAGGATCGATC
- binding signal [1]: 29.6 % bound
- binding signal (prothrombin): 34.2 % bound

B8: AMX(399)_F9 (ssDNA)
DNA: TCCCGCTATTCGATCTTCAATTGGGTGGTCAGGGTGGCTGAGGATCGATC
- binding signal [1]: 25.2 % bound
- binding signal (prothrombin): 26 % bound

B9: AMX(399)_F10 (ssDNA)
DNA: TCCCGTCGGTCCGTTCGGTATTTTTTTCTGGGTGGCTGAGGATCGATC
- binding signal [1]: 21.3 % bound
- binding signal (prothrombin): 22.1 % bound

B10: AMX(399)_F11 (ssDNA)
DNA: TCCCTATGGATTCGGGGTACGTTAGTTCTGGGTGGCTGAGGATCGATC
- binding signal [1]: 35.1 % bound
- binding signal (prothrombin): 35.7 % bound

B11: AMX(399)_G2 (ssDNA)
DNA: TCCCATCGTCTGTGGTATAGGAACTTCTGGGTGGCTGAGGATCGATC
- binding signal [1]: 18.8 % bound
- binding signal (prothrombin): 7.28 % bound

B12: AMX(399)_G3 (ssDNA)
DNA: TCCCATCGAACCTCGAGGGTATTGTTGGCTTGGGTGGCTGAGGATCGATC
- binding signal [1]: 20.8 % bound
- binding signal (prothrombin): 22.6 % bound

B13: AMX(399)_G5 (ssDNA)
DNA: TCCCGGTATCGTCATGCTGGTGGAATTGGTTGGGTGGCTGAGGATCGATC
- binding signal [1]: 23.2 % bound
- binding signal (prothrombin): 18.9 % bound

B14: AMX(399)_G6 (ssDNA)
DNA: TCCCATCGATCAGTGGTGGCTTGGCTGGTTTGGGTGGCTGAGGATCGATC
- binding signal [1]: 39.7 % bound
- binding signal (prothrombin): 38.6 % bound

B15: AMX(399)_G8 (ssDNA)
DNA: TCCCATCGATCTGTGGTGGTTTTGTGGCTTGGGTGGCTGAGGATCGATC
- binding signal [1]: 27.6 % bound
- binding signal (prothrombin): 25.9 % bound

B16: AMX(399)_G9 (ssDNA)
DNA: TCCCGTGAGAGCTGGGGTGTTTATATGGGTCGGGTGGCTGAGGATCGATC
- binding signal [1]: 21.3 % bound
- binding signal (prothrombin): 22.5 % bound

B17: AMX(399)_G10 (ssDNA)
DNA: TCCCGATCGCTGTCCTAGGATGGGTAGGGTGGTGGCTGAGGATCGATC
- binding signal [1]: 38.4 % bound

B18: AMX(399)_G11 (ssDNA)
DNA: TCCCCATCGATCCTGGTCTCTTTTGTTCTGGGTGGCTGAGGATCGATC
- binding signal [1]: 12.8 % bound
- binding signal (prothrombin): 11.8 % bound

B19: AMX(399)_G12 (ssDNA)
DNA: TCCCGGATCCTCGTGGGTATTGTTGGGTTGGGTGGCTGAGGATCGATC
- binding signal [1]: 40.6 % bound
- binding signal (prothrombin): 41.1 % bound

B20: AMX(399)_H1 (ssDNA)
DNA: TCCCATCGAACCTCGAGGGTATTGTTGGTTTGGGTGGCTGAGGATCGATC
- binding signal [1]: 21.2 % bound
- binding signal (prothrombin): 20.4 % bound

B21: AMX(399)_H2 (ssDNA)
DNA: TCCCGACTTTAGATCCGTGTTGGATGGCCTGGGTGGCTGAGGATCGATC
- binding signal [1]: 5.49 % bound

B22: AMX(399)_H4 (ssDNA)
DNA: TCCCGAGAGATTCAAAAGGGACTGGGCGGTTGGGTGGCTGAGGATCGATC
- binding signal [1]: 7.7 % bound

B23: AMX(399)_H6 (ssDNA)
DNA: TCCCGGAGATCTGAGGTGTTTTATTGGTTTGGGTGGCTGAGGATCGATC
- binding signal [1]: 8.48 % bound
- binding signal (prothrombin): 6.32 % bound

B24: AMX(399)_H7 (ssDNA)
DNA: TCCCGGTTGTCGATTCTGGTATTGTTGGGCTGGGTGGCTGAGGATCGATC
- binding signal [1]: 38.1 % bound
- binding signal (prothrombin): 36.1 % bound

B25: ARC2662 (ssDNA)
DNA: ACTGCCTAGGTTGGGTAGGGTGGTGGCAGT
modifications: PS linkage between nt 19 and 20
- Kd [2]: 0.165 nM

B26: ARC2663 (ssDNA)
DNA: ACTGCCTAGGTTGGGTAGGGTGGTGGCAGT
modifications: PS linkage between nt 20 and 21
- Kd [2]: 0.18 nM

B27: ARC2664 (ssDNA)
DNA: ACTGCCTAGGTTGGGTAGGGTGGTGGCAGT
modifications: PS linkage between nt 21 and 22
- Kd [2]: 0.211 nM

B28: ARC2665 (ssDNA)
DNA: ACTGCCTAGGTTGGGTAGGGTGGTGGCAGT
modifications: PS linkage between nt 22 and 23
- Kd [2]: 0.121 nM

B29: ARC2667 (ssDNA)
DNA: ACTGCCTAGGTTGGGTAGGGTGGTGGCAGT
modifications: PS linkage between nt 24 and 25
- Kd [2]: 0.459 nM

B30: ARC2646 (ssDNA)
DNA: ACTGCCTAGGTTGGGTAGGGTGGTGGCAGT
modifications: PS linkage between nt 3 and 4
- Kd [2]: 0.169 nM

B31: ARC2668 (ssDNA)
DNA: ACTGCCTAGGTTGGGTAGGGTGGTGGCAGT
modifications: PS linkage between nt 25 and 26
- Kd [2]: 0.159 nM

B32: ARC2669 (ssDNA)
DNA: ACTGCCTAGGTTGGGTAGGGTGGTGGCAGT
modifications: PS linkage between nt 26 and 27
- Kd [2]: 0.129 nM

B33: ARC2670 (ssDNA)
DNA: ACTGCCTAGGTTGGGTAGGGTGGTGGCAGT
modifications: PS linkage between nt 27 and 28
- Kd [2]: 0.16 nM

B34: ARC2671 (ssDNA)
DNA: ACTGCCTAGGTTGGGTAGGGTGGTGGCAGT
modifications: PS linkage between nt 28 and 29
- Kd [2]: 0.158 nM

B35: ARC2672 (ssDNA)
DNA: ACTGCCTAGGTTGGGTAGGGTGGTGGCAGT
modifications: PS linkage between nt 29 and 30
- Kd [2]: 0.141 nM

B36: ARC2647 (ssDNA)
DNA: ACTGCCTAGGTTGGGTAGGGTGGTGGCAGT
modifications: PS linkage between nt 4 and 5
- Kd [2]: 0.161 nM

B37: ARC2648 (ssDNA)
DNA: ACTGCCTAGGTTGGGTAGGGTGGTGGCAGT
modifications: PS linkage between nt 5 and 6
- Kd [2]: 0.128 nM

B38: ARC2649 (ssDNA)
DNA: ACTGCCTAGGTTGGGTAGGGTGGTGGCAGT
modifications: PS linkage between nt 6 and 7
- Kd [2]: 0.264 nM

B39: AMX(398)_B11 (ssDNA)
DNA: TCCCGCTCGATTTCGAAGAATGGTTGGTTTGGGTGGCTGAGGATCGATC
- binding signal [1]: 9.76 % bound

B40: AMX(398)_C3 (ssDNA)
DNA: TCCCATGTGTTAGATCCGTGTGGTTGGACTGGGTGGCTGAGGATCGATC
- binding signal [1]: 10.8 % bound

B41: ARC2650 (ssDNA)
DNA: ACTGCCTAGGTTGGGTAGGGTGGTGGCAGT
modifications: PS linkage between nt 7 and 8
- Kd [2]: 0.23 nM

B42: ARC2651 (ssDNA)
DNA: ACTGCCTAGGTTGGGTAGGGTGGTGGCAGT
modifications: PS linkage between nt 8 and 9
- Kd [2]: 0.111 nM

B43: ARC2652 (ssDNA)
DNA: ACTGCCTAGGTTGGGTAGGGTGGTGGCAGT
modifications: PS linkage between nt 9 and 10
- Kd [2]: 0.192 nM

B44: ARC2654 (ssDNA)
DNA: ACTGCCTAGGTTGGGTAGGGTGGTGGCAGT
modifications: PS linkage between nt 11 and 12
- Kd [2]: 0.095 nM
